We go through one protein from PMC5562730, “Three recombinantly expressed apple tyrosinases suggest the amino acids responsible for mono- versus diphenolase activity in plant polyphenol oxidases” (Scientific Reports, 2017).

Substrate in series [1]: NCCc1ccc(O)cc1
The series is described as follows: purified protein. It is filed as biochemical, Malus domestica. To be noted: 50 mM Tris-HCl pH 7.0, 25 °C, 3 mM SDS as activator.

Substrate in series [2]: NCCc1ccc(O)c(O)c1
The series is described as follows: purified protein. The series is classed as biochemical, Malus domestica. To be noted: 50 mM Tris-HCl pH 7.0, 25 °C, 3 mM SDS as activator.

B1: MdPPO1 (Malus domestica) (protein)
chain: KPIAPPDVSKCGPADLPQGAVPTNCCPPPSTKIIDFKLPAPAKLRIRPPAHAVDQAYRDKYYKAMELMKALPDDDPRSFKQQAAVHCAYCDGAYDQVGFPELELQIHNSWLFFPFHRYYLYFFEKILGKLINDPTFALPFWNWDSPAGMPLPAIYADPKSPLYDKLRSANHQPPTLVDLDYNGTEDNVSKETTINANLKIMYRQMVSNSKNAKLFFGNPYRAGDEPDPGGGSIEGTPHAPVHLWTGDNTQPNFEDMGNFYSAGRDPIFFAHHSNVDRMWSIWKTLGGKRTDLTDSDWLDSGFLFYNENAELVRVKVRDCLETKNLGYVYQDVDIPWLSSKPTPRRAKVALSKVAKKLGVAHAAVASSSKVVAGTEFPISLGSKISTVVKRPKQKKRSKKAKEDEEEILVIEGIEFDRDVAVKFDVYVNDVDDLPSGPDKTEFAGSFVSVPHSHKHKKKMNTILRLGLTDLLEEIEAEDDDSVVVTLVPKFGAVKIGGIKIEFAS
notes: latent pro-enzyme without transit peptide, C-terminal domain kept; GST tag cut (HRV3C, pGEX-6P-1 SmaI); E. coli BL21
As for B1, the Michaelis-Menten constant (Km) – broadly, the substrate concentration at which the rate is half of its maximum – in series [1] was determined as 710 ± 36 µM; in series [2], 480 ± 38 µM. Moreover, the results for the kcat in series [1] and in series [2] were 9.5 ± 0.43 s⁻¹ and 100 ± 4.54 s⁻¹, respectively.
